From article PMC10397247

Key:
[1] = biological target: T1, P6SC2; test: two-hybrid library CCNG1;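 further: natural log of median RNA to DNA barcode read ratio; higher means stronger binding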
T1 chain: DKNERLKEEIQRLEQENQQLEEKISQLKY

[2] = biological target: T2, P6SC1; test: two-hybrid library CCNG1;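 further: natural log of median RNA to DNA barcode read ratio; higher means stronger binding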
T2 chain: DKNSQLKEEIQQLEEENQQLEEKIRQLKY

[3] = biological target: T1, P6SC2; test: two-hybrid library CCmax; conditions: mean of both orientations;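 further: natural log of median RNA to DNA barcode read ratio; higher means stronger binding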
[4] = biological target: T2, P6SC1; test: two-hybrid library CCmax; conditions: mean of both orientations;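 further: natural log of median RNA to DNA barcode read ratio; higher means stronger binding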
[5] = biological target: T3, 4H342-bH; test: two-hybrid library CCNG1
T3 chain: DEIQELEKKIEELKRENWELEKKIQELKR

[6] = biological target: T4, 4H3070-bH; test: two-hybrid library CCNG1; conditions: mean of both orientations
T4 chain: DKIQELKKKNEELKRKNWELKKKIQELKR

[7] = biological target: T5, 4H496-bH; test: two-hybrid library CCNG1
T5 chain: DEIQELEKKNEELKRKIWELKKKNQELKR

[8] = biological target: T6, 4H2691-bH; test: two-hybrid library CCNG1
T6 chain: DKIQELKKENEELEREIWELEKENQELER

[9] = biological target: T7, 4H145-bH; test: two-hybrid library CCNG1; conditions: mean of both orientations
T7 chain: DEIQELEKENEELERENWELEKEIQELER

[10] = biological target: T8, 4H2619-bH; test: two-hybrid library CCNG1
T8 chain: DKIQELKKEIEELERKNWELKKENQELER

[11] = biological target: T9, 4H3632-bH; test: two-hybrid library CCNG1
T9 chain: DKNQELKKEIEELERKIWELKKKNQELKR

[12] = biological target: T10, P4A-bH; test: two-hybrid library CCNG1
T10 chain: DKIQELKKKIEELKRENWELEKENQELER

[13] = biological target: T11, P3A-bH; test: two-hybrid library CCNG1
T11 chain: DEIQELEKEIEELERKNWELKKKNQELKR

[14] = biological target: T12, P5A-bH; test: two-hybrid library CCNG1
T12 chain: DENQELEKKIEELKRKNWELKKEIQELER

[15] = biological target: T13, P6A-bH; test: two-hybrid library CCNG1
T13 chain: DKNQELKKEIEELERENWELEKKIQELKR

[16] = biological target: T14, P8A-bH; test: two-hybrid library CCNG1
T14 chain: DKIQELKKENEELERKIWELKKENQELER

[17] = biological target: T15, P11A-bH; test: two-hybrid library CCNG1
T15 chain: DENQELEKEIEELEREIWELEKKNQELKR

[18] = biological target: T16, P12A-bH; test: two-hybrid library CCNG1
T16 chain: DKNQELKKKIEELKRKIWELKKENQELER

[19] = biological target: T17, P2A-bH; test: two-hybrid library CCNG1
T17 chain: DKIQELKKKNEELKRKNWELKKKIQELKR

[20] = biological target: T18, P7A-bH; test: two-hybrid library CCNG1
T18 chain: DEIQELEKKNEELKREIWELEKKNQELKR

[21] = biological target: T19, P1A-bH; test: two-hybrid library CCNG1
T19 chain: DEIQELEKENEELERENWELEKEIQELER

[22] = biological target: T20, 4H754-bH; test: two-hybrid library CCNG1
T20 chain: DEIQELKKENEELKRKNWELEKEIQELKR

[23] = biological target: T21, 4H3112-bH; test: two-hybrid library CCNG1
T21 chain: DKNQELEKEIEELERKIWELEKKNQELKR

[24] = biological target: T22, 4H797-bH; test: two-hybrid library CCNG1
T22 chain: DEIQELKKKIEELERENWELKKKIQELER

[25] = biological target: T23, 4H968-bH; test: two-hybrid library CCNG1
T23 chain: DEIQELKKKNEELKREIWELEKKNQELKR

[26] = biological target: T24, 4H2673-bH; test: two-hybrid library CCNG1
T24 chain: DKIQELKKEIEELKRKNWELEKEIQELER

[27] = biological target: T25, 4H683-bH; test: two-hybrid library CCNG1
T25 chain: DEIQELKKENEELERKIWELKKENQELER

[28] = biological target: T26, 4H3926-bH; test: two-hybrid library CCNG1
T26 chain: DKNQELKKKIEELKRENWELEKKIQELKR

[29] = biological target: T27, 4H2627-bH; test: two-hybrid library CCNG1
T27 chain: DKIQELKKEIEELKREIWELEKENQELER

[30] = biological target: T28, 4H3010-bH; test: two-hybrid library CCNG1
T28 chain: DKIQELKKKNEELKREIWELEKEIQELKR

[31] = biological target: T29, 4H918-bH; test: two-hybrid library CCNG1
T29 chain: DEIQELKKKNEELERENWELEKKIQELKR

[32] = biological target: T30, 4H118-bH; test: two-hybrid library CCNG1
T30 chain: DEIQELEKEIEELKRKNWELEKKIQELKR

[33] = biological target: T31, 4H3427-bH; test: two-hybrid library CCNG1
T31 chain: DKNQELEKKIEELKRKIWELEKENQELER

[34] = biological target: T32, 4H346-bH; test: two-hybrid library CCNG1
T32 chain: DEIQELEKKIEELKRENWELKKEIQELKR

[35] = biological target: T33, 4H2702-bH; test: two-hybrid library CCNG1
T33 chain: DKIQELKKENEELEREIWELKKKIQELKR

[36] = biological target: T34, 4H2586-bH; test: two-hybrid library CCNG1
T34 chain: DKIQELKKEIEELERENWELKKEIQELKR

[37] = biological target: T35, 4H855-bH; test: two-hybrid library CCNG1
T35 chain: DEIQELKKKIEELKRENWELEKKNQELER

[38] = biological target: T36, 4H780-bH; test: two-hybrid library CCNG1
T36 chain: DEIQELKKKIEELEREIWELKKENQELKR

[39] = biological target: T37, 4H2233-bH; test: two-hybrid library CCNG1
T37 chain: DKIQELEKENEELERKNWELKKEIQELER

[40] = biological target: T38, 4H1158-bH; test: two-hybrid library CCNG1
T38 chain: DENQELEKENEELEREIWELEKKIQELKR

[41] = biological target: T39, 4H953-bH; test: two-hybrid library CCNG1
T39 chain: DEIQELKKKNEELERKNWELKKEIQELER

[42] = biological target: T40, 4H4073-bH; test: two-hybrid library CCNG1
T40 chain: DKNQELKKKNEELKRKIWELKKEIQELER

[43] = biological target: T41, 4H457-bH; test: two-hybrid library CCNG1
T41 chain: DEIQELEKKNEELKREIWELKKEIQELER

[44] = biological target: T42, 4H112-bH; test: two-hybrid library CCNG1
T42 chain: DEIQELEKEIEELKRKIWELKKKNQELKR

[45] = biological target: T43, 4H170-bH; test: two-hybrid library CCNG1
T43 chain: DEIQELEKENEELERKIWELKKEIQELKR

[46] = biological target: T44, 4H1831-bH; test: two-hybrid library CCNG1
T44 chain: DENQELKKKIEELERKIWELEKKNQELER

[47] = biological target: T45, 4H575-bH; test: two-hybrid library CCNG1
T45 chain: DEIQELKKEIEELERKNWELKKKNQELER

[48] = biological target: T46, P9A-bH; test: two-hybrid library CCNG1
T46 chain: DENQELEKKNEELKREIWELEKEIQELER

DENARLEEKIRQLKQKNSQLKEEIQQLEY [P5SC2]
interaction score [1]: 0.391 | interaction score [2]: 0.383 | interaction score [3]: 0.811 | interaction score [4]: 0.953

DEIQELEKENEELERENWELEKEIQELER [4H145-bH]
interaction score [5]: -0.409 | interaction score [6]: 1.19 | interaction score [7]: -0.316 | interaction score [8]: -0.291 | interaction score [9]: -0.793 | interaction score [10]: -0.128 | interaction score [11]: -1.44

DKNQELKKENEELERKIWELKKKIQELKR [P10A-bH]
interaction score [12]: 0.192 | interaction score [13]: 0.247 | interaction score [14]: -0.49 | interaction score [15]: 0.998 | interaction score [16]: -0.68 | interaction score [17]: -0.118 | interaction score [18]: 1.15 | interaction score [19]: -0.586 | interaction score [20]: 0.686 | interaction score [21]: 1.06

DEIQELEKEIEELKRKIWELKKKNQELKR [4H112-bH]
interaction score [22]: -0.515 | interaction score [23]: 1.27 | interaction score [24]: -0.295 | interaction score [25]: 0.0767 | interaction score [26]: 0.53 | interaction score [27]: 0.914 | interaction score [28]: 0.23 | interaction score [29]: 1.4 | interaction score [30]: 1.49 | interaction score [31]: -0.152 | interaction score [32]: 0.444 | interaction score [33]: 1.48 | interaction score [34]: 0.154 | interaction score [35]: 0.179 | interaction score [36]: 0.807 | interaction score [37]: -0.0783 | interaction score [38]: 0.211 | interaction score [39]: -0.606 | interaction score [40]: 1.45 | interaction score [41]: -0.228 | interaction score [42]: 1.39 | interaction score [43]: 1.45 | interaction score [44]: 1.65 | interaction score [45]: -0.736 | interaction score [46]: 0.143 | interaction score [47]: -0.63

DENSQLEEKISQLKQKNSRLKEEIARLEY [P5SC1]
interaction score [1]: -0.371 | interaction score [2]: 0.785 | interaction score [3]: 0.454 | interaction score [4]: 1.63

DENQELEKEIEELEREIWELEKKNQELKR [P11A-bH]
interaction score [12]: 1.83 | interaction score [13]: 0.615 | interaction score [14]: 0.555 | interaction score [15]: 0.692 | interaction score [48]: 1.09 | interaction score [16]: 0.165 | interaction score [17]: -2.55 | interaction score [18]: 1.5 | interaction score [19]: 0.45 | interaction score [20]: 0.921 | interaction score [21]: 1.5
